According to paper PMC5063967, “EIN2-dependent regulation of acetylation of histone H3K14 and non-canonical histone H3K23 in ethylene signalling” (Nature Communications, 2016):

Target: T1, MBP-tagged EIN3 purified from E. coli (Arabidopsis, UniProt O24606 1-628)
T1 construct: also called ETHYLENE … 3; source: E. coli, purified
T1 sequence (looked up): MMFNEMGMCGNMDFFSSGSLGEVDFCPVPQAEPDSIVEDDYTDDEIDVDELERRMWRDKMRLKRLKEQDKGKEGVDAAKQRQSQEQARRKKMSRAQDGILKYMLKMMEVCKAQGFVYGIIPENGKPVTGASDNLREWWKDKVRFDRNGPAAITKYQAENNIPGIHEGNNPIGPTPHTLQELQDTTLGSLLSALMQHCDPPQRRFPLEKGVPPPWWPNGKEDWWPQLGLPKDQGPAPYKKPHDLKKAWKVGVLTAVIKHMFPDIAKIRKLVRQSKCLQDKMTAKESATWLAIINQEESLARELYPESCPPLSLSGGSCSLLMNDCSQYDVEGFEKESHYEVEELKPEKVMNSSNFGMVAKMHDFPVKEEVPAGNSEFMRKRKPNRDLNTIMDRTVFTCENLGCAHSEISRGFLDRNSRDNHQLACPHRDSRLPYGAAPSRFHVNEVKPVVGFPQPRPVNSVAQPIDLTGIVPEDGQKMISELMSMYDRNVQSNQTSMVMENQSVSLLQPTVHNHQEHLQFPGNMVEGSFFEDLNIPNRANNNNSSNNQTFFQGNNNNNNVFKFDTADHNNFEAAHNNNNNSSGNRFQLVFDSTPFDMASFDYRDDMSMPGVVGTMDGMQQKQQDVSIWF
Assay: pull-down; in vitro GST pull-down; GST-tagged ENAP1 and MBP-tagged EIN3 purified from E. coli
Conditions: both partners purified

binding result: binds
B1: GST-ENAP1, full length, purified from E. coli (natural protein, Arabidopsis, UniProt Q8VZI9 1-249, looked up)
chain: METTPETQSKTHRLPAGREDWWSEDATATLIEAWGDRYVNLNRGNLRQNDWKEVADAVNSSHGNGRPKTDVQCKNRIDTLKKKYKTEKAKPLSNWCFFDRLDFLIGPVMKKSSGAVVKSALMNPNLNPTGSKSTGSSLDDDDDDDDDDEEDDDDAGDWGFVVRKHRKVEDVDSSEGSAFRELARSILKLGEAFERIEGKKQQMMIELEKQRMEVAKELELQRMNMLMEMQLELEKSKLGKRRAASGKKL
notes: ENAP1, encoded by at3g11100, Arabidopsis, full length; The methods of the pull-down name the fusion protein 'GST-CD3'; also called GST-labelled ENAP1; GST-tagged ENAP1; source: E. coli, purified (glutathione Sepharose 4B)
